One assay addresses human CD4 on cells (human, UniProt P01730 26-458). Put plainly: cell-based or functional assay.
A further assay addresses CCR5 (UniProt P51681 1-352, limits assumed). In words: cell-based or functional assay.
In another assay the target is T1, CXCR3 (UniProt P49682 1-368, limits assumed).
T1 construct: whole, on cells
T1 sequence (looked up): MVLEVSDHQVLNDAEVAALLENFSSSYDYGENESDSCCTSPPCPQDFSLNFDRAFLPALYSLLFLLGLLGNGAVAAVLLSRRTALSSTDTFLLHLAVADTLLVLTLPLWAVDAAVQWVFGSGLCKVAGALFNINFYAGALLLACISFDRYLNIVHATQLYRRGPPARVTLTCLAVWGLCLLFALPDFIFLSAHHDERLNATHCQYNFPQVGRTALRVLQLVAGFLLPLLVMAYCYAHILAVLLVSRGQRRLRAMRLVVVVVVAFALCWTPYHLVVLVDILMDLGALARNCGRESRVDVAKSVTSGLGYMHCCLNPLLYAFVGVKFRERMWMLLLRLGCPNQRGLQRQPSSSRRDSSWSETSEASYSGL
Put plainly: total binding of [125I]-238D2 to membranes of HEK293T cells expressing CXCR4 or CXCR3.

Two molecules from patent US20110318347A1 (Ablynx, published 2011) can be followed below.

CCR5, sequence (P51681 whole entry): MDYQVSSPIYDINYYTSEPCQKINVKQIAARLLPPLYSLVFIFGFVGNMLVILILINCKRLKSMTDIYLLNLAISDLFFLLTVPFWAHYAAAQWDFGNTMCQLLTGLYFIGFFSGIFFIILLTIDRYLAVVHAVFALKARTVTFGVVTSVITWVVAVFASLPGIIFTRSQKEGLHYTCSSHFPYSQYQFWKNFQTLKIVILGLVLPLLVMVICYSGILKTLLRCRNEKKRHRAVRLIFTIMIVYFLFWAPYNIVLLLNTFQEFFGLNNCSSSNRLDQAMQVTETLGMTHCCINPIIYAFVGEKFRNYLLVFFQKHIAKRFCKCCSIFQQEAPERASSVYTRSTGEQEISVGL

B1: Nanobody 03F11 (VHH)
VHH: EVQLVESGGGSVQPGGSLTLSCGTSGRTFNVMGWFRQAPGKEREFVAAVRWSSTGIYYTQYADSVKSRFTISRDNAKNTVYLEMNSLKPEDTAVYYCAADTYNSNPARWDGYDFRGQGTQVTVSS
With B1, in the assay with human CD4 on cells, the “anti-HIV activity, NL4.3 on MT4 cells, MTS method, IC50” value worked out at 85 nM and the “anti-HIV activity, NL4.3 on MT4 cells, p24 levels, IC50” value worked out at 15 nM.

B2: Nanobody 238D2 (VHH)
VHH: EVQLVESGGGLVQTGGSLRLSCAASGFTFSSYAMSWVRQAPGKGLEWVSGIKSSGDSTRYAGSVKGRFTISRDNAKNMLYLQMYSLKPEDTAVYYCAKSRVSRTGLYTYDNRGQGTQVTVSS
modifications: In some assays the Nanobody was 125I-labelled (Iodo-gen, on tyrosine); the letters do not carry this.
notes: Monovalent llama VHH against human CXCR4, purified; tags not described; also called 238C1
For the molecule B2, in the assay with CCR5, the “IC50, HIV-1 BaL, PBMC donor 1” value was greater than 1 µg/mL; the “IC50, HIV-1 BaL, PBMC donor 2” value is greater than 1 µg/mL; the “nM IC50, HIV-1 BAL, PBMC donor 1” value is greater than 67 nM; the “nM IC50, HIV-1 BAL, PBMC donor 2” value is greater than 67 nM. For the same molecule, the binding result with CXCR3 is “no binding (tested: 3 nM radioligand)”.
